Assay results published in patent publication US20250188151A1, “C-JUN ANTAGONIST PEPTIDES” (The University of Bath, priority 2022, published 2025).

Key:
cJun/TRE DNA interaction = biological target: T1, cJun/TRE DNA interaction (Homo sapiens, UniProt P05412, S292Y); test: CD cJun/TRE DNA antagonism (shift of TRE DNA peak at ~281 nm, Hill fit); format: biochemical; conditions: HingeW concentrations of 50 and 100 μM
T1 construct: The same 60 amino acid c-Jun bZIP construct was used for all experiments; His-SUMO (N, cleaved yes); made in house; host or cells: E. coli
T1 sequence (P05412 with tags, fused parts or gaps S292Y): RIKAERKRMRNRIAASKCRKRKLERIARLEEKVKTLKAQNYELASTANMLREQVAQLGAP

[1] = biological target: T2, cJun bZIP/TRE DNA interaction (transcriptional block of TRE-mDHFR) (Homo sapiens, UniProt P05412, S292Y); test: Transcription Block Survival (TBS) assay: colony counting and growth competition in E. coli; format: cell-based
T2 construct: expressed in transfected cells; host or cells: E. coli BL21 Gold carrying pES300d-TRE-mDHFR and pES230d-cJun bZIP
T2 sequence (P05412 with tags, fused parts or gaps S292Y): as above
Excerpt: Library Construction and TBS Assay: Library inserts were produced using PCR fill-in reactions from synthesised primers (Sigma) with degenerate codons at the desired positions to produce the correct residue options. The library was subcloned using SacI and AscI sites into the pET24a plasmid containing A-FosW. The primers used were cJun-Hinge-Lib-F: 5′-[…] TATGCC-3′ (SEQ ID NO: 49) and cJun-Hinge-Lib_R: 5′-[…] GTTC-3′ (SEQ ID NO: 50). The library DNA was transformed into NEB 10-beta electrocompetent E. coli cells. The following equation was utilised to determine library coverage by the number of single colonies: E=100×(1−1/n)^m where E is the percentage of the library missing, m is the number of colonies collected and n is the library size. […] Library DNA quality was assessed by sequencing both the DNA pool and a number of single colonies to show degenerate codons in the correct positions in the pool and to show a diversity of library members from single colonies. The pool of library DNA was transformed into BL21 Gold cells already containing pES300d-TRE-mDHFR and pES230d-cJun bZIP.
Selective pressure is applied by growing the bacteria in M9 minimal media with TMP (2-4 μM) alongside ampicillin, kanamycin and chloramphenicol to maintain the required plasmids, and IPTG (1 mM) to induce protein expression. The library transformants were first plated out onto selective agar plates (2 μM TMP) and grown at 37° C. for 72-96 h. Optimisation experiments (FIG. 5) indicate that 4 μM TMP is optimum for selection however a lower stringency is used initially before selection is increased in later steps. Colonies from this first round of selection were pooled and serially grown in liquid culture at starting OD600 of 0.05 and grown at 37° C. with shaking at 200 rpm until the OD600 reached 0.6. TMP concentration was 2 μM in the first liquid culture passage before it was increased to the optimum 4 μM in subsequent passages. […] At each passage step, a sample of the culture was plated on LB agar (supplemented with antibiotics to maintain plasmids) to select and sequence individual colonies, and a DNA pool was also sequenced. This allows the occurrence of library members to be monitored as winner sequences are selected for. Assay Validation experiments utilised a modified assay methodology whereby overnight cultures from glycerol stocks of the Control Strains (Table 2) were diluted to OD600=0.5 and 50 μL was plated on a selective M9 minimal medium agar plate.
Transcription block survival (TBS) is an intracellular assay that utilises cell survival as a readout. […] This enzyme is absolutely essential for survival since it is required for the production of purines needed for DNA and amino acid synthesis. […]. We produced a mDHFR gene (FIGS. 2 and 3) by rational design to introduce 15 TRE sites into the coding DNA sequence to allow a robust cJun transcriptional block whilst minimising alteration to the expressed protein (TRE-mDHFR). In particular, the resulting TRE-mDHFR construct was produced via two silent and thirteen conservative mutations. […] The accessible surface areas of all other amino acid residues were calculated using the ‘Accessible Surface Area and Accessibility Calculation for Protein’ tool (http://cib.cf.ocha.ac.jp/bitool/ASA/). […]

B1: HingeW (peptide)
peptide: MASLEQRAEELARENEELEKEAEELVVEEDVLEEEIEQLEERNYALRKEIEDLQKQLEKLGAPHHHHHH
notes: Recombinant, capped (MAS at the N-terminus, GAP at the C-terminus) and C-terminally 6xHis-tagged, 69 amino acids; also called peptide 1
cJun/TRE DNA interaction
  antagonism of the cJun/TRE interaction: complete antagonism
[1]; equal numbers of TBS cells with A-FosW or HingeW, after three passages
  direct competition in liquid culture, sequence observed by DNA sequencing: only HingeW was observed
[1]; vs transcriptionally blocked cells (TRE-mDHFR + cJun bZIP)
  effect on TRE-mDHFR transcriptional block / colony numbers: restore cell survival
